The assay deals with T1, RecA (B. subtilis) (UniProt P16971).
T1 sequence: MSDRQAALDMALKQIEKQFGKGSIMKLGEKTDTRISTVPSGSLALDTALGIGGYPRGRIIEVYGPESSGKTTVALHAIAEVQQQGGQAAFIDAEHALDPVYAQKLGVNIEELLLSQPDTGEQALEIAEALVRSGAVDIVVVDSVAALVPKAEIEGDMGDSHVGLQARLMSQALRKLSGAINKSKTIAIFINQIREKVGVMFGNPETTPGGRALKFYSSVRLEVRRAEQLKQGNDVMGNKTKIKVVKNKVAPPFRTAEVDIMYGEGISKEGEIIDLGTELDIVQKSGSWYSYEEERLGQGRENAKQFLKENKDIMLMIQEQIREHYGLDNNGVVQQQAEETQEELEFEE

B1: RarA K51A (enzyme)
chain: MKPLAYRMRPTKIEDIIGQQHLVAEDKIIGRMVQAKHLSSMILYGPPGIGATSIATAIAGSTSIAFRKLNAVINNKKDMEIVAQEAKMSGQVILILDEVHRLDKGKQDFLLPYLENGMIILIGATTANPYHAINPAIRSRTQIFELEPLTPELIKQALERALHDEHRGLGTYSVSIDDQAMEHFAHGCGGDVRSALNALELAVLSTKESADGEIHITLETAEECLQKKSFSHDKDGDAHYDVLSAFQKSIRGSDANAALHYLARLIEAGDLESIARRLLVIAYEDIGLASPQAGPRVLNAIQTAERVGFPEARIPLANAVIELCLSPKSNSAILAIDEALADIRAGKIGDVPKHLKDAHYKGAQELGRGIDYKYPHNYDNGWVEQQYLPDPLKNKQYYKPKQTGKFESALKQVYDKLMKRK
Regarding B1, the maximal rate of ssDNA-dependent ATP hydrolysis of RecA (650 nM) in the presence of RarA K51A (100 nM), coupled spectrophotometric ATPase assay, 5 mM ATP, 30 min at 37°C was 8.8 min⁻¹.

These data come from article PMC7031210.
